{
  "source": "patent US20120207759A1",
  "about": "(WASHINGTON UNIVERSITY, published 2012)",
  "key": {"[1]": {"molecular_target": "T1, human HVEM expressed on transduced BJAB cells (full length) (human, UniProt Q92956 39-283)", "T1 construct": "also called hHVEM; hHVEM-IRES-GFP", "T1 sequence": "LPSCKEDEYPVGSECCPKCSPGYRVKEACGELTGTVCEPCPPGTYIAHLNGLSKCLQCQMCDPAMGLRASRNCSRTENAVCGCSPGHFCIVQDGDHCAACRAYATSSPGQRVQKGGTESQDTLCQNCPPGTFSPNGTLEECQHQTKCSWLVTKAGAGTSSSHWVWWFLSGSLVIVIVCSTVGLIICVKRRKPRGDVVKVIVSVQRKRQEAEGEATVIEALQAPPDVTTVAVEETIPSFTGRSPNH", "experiment": "flow cytometry on transduced BJAB cells", "description": "(§1) FIG. 36 HVEM is a ligand for BTLA. (A) NIH 3T3 cells and BJAB cells were transduced with splenocyte cDNA libraries and were directly stained with anti-Thy1.1-FITC and the C57BL/6 BTLA tetramer-phycoerythrin (Before sorting). These cells were sorted for the highest 0.5% population of BTLA tetramer staining with BTLA-phycoerythrin tetramer and Thy1.1-FITC and were subjected to an additional three rounds of similar sequential purification. After the fourth round of sorting, cell populations were expanded and cells were stained (After sorting). Numbers in each quadrant indicate the percentage of live cells in the indicated gate. (B) BJAB cells were transduced with the retroviruses mHVEM-IRES-GFP (mHVEM; mouse), hHVEM-IRES-GFP (hHVEM; human), 4-1 BB-IRES-GFP (4-1 BB; mouse) and LTβR-1RES-GFP (LTβR; mouse) and were stained with C57BL/6 BTLA tetramer-phycoerythrin or BALB/c BTLA tetramer-phycoerythrin. Numbers in dot plots indicate the percentage of BTLA tetramer staining in the GFP-positive population. (C, D) HVEM activates BTLA phosphorylation and SHP-2 association. EL-4 cells (EL4), BJAB cells expressing GFP (BJAB-GFP) or BJAB cells expressing mouse HVEM (BJAB-mHVEM) were added (+) or not added (−) for 4 min at 37° C. at a density of 25×10⁶ cells/ml. Cells were left untreated (−) or were treated (+) with pervanadate (VO₄) for 4 min. Total cell lysates were prepared and were immunoprecipitated with 6A6 (anti-mouse BTLA), and immunoblots were probed for SHP-2 (C) or for phosphotyrosine (D) in immunoprecipitates (IP) or in lysates without immunoprecipitation. Immunoblots using the isotype control for immunoprecipitation were negative for SHP-2 association (data not shown). Data in C and d are representative of four independent experiments. (E) BJAB cells were transduced with retrovirus mHVEM-ires-GFP or hHVEM-ires-GFP and were stained with human IgG1 isotype control (hIgG1), mB7x-Fc, mBTLA-Fc or hBTLA-Fc followed by anti-human IgG-phycoerythrin. Numbers in dot plots show the percentage of fusion protein staining in the GFP-positive population."}, "[2]": {"molecular_target": "T2, mouse LTβR expressed on transduced BJAB cells (mouse, UniProt P50284 31-415)", "T2 construct": "whole, on cells; also called LTI3R; mLT R", "T2 sequence (P50284 31-415)": "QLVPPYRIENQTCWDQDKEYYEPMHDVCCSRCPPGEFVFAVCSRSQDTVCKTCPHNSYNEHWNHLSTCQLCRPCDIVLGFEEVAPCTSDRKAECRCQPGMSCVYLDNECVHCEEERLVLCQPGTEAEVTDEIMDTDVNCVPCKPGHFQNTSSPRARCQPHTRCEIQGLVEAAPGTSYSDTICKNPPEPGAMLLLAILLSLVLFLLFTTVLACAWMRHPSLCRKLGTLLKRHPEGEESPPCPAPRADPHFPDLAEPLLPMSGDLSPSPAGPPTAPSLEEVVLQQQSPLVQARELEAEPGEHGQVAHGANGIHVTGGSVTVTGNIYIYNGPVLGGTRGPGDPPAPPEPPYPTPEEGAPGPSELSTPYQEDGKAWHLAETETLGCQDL", "experiment": "flow cytometry on transduced BJAB cells", "description": "as §1"}, "[3]": {"molecular_target": "T3, mouse 4-1BB expressed on transduced BJAB cells (mouse, UniProt P20334 24-256)", "T3 construct": "whole, on cells; also called m4-1BB; 4-1 BB-IRES-GFP", "T3 sequence (looked up)": "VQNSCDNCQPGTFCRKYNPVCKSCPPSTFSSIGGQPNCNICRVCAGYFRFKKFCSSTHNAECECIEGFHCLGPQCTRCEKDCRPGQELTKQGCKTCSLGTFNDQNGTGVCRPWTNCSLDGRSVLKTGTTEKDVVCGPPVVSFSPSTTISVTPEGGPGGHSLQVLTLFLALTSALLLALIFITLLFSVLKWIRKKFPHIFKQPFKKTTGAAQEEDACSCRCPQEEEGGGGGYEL", "experiment": "flow cytometry on transduced BJAB cells", "description": "as §1"}, "[4]": {"molecular_target": "T4, B7x extracellular domain expressed on NIH 3T3 cells (mouse, UniProt Q7TSP5 25-257)", "T4 construct": "also called B7x-B7h-GFP; not shown: B7h transmembrane and cytoplasmic domains fused to GFP", "T4 sequence": "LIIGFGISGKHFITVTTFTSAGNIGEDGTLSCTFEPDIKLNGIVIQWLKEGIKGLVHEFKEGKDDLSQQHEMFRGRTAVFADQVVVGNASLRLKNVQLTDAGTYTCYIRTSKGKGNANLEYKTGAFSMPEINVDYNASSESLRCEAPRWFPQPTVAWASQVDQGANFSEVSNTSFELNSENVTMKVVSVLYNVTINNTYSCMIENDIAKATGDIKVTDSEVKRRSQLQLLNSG", "experiment": "flow cytometry on NIH 3T3 transfectants", "description": "(§2) To test for direct interactions between BTLA and B7x, we made NI H 3T3 cell lines stably expressing the extracellular domains of B7x, BTLA, and programmed death 1 (PD-1) and its ligand (PD-L1), and stained the cells with PD-1 and BTLA tetramers and with PD-L1 and B7x Fc fusion proteins."}, "[5]": {"molecular_target": "T5, PD-L1 expressed on NIH 3T3 cells (UniProt Q9EP73 19-265, limits assumed)", "T5 construct": "domain: extracellular domains; also called PD-L1-GFP", "T5 sequence (Q9EP73 19-265 limits assumed)": "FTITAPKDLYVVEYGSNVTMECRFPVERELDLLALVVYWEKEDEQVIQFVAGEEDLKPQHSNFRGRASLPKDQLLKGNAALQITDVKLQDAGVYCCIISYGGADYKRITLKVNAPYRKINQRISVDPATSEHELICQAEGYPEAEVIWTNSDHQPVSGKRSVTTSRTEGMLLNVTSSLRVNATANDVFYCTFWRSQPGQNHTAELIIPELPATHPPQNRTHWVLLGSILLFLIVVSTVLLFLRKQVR", "experiment": "flow cytometry on NIH 3T3 transfectants", "description": "as §2"}, "[6]": {"molecular_target": "SHP-1 (UniProt P29350 1-595)", "sequence (P29350 whole entry)": "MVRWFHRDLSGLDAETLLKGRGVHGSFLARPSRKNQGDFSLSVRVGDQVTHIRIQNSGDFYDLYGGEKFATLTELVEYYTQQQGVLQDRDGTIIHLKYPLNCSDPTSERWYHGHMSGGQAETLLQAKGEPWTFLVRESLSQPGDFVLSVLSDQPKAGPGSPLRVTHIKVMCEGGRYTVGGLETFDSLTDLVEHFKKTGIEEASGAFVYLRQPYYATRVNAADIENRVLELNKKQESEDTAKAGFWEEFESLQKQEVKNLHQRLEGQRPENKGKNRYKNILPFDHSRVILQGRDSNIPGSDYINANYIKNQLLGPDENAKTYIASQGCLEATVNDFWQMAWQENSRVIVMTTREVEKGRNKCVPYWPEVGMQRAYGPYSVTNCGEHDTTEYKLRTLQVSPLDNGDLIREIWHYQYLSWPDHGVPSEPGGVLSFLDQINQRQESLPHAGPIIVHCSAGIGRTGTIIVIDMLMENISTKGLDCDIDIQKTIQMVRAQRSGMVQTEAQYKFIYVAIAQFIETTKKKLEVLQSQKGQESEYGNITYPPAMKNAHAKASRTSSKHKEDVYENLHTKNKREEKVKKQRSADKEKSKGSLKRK", "experiment": "co-immunoprecipitation"}, "[7]": {"molecular_target": "Grb2 (UniProt P62993 1-217)", "sequence (P62993 whole entry)": "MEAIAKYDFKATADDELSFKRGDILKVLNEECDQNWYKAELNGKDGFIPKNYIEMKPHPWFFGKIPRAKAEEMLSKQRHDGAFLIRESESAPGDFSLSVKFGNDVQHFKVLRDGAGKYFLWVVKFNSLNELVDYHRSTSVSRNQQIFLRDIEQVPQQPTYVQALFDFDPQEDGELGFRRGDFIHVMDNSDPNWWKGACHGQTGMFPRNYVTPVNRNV", "experiment": "co-immunoprecipitation"}, "[8]": {"molecular_target": "T6, SHIP (UniProt Q92835 1-1189, limits assumed)", "T6 sequence (looked up)": "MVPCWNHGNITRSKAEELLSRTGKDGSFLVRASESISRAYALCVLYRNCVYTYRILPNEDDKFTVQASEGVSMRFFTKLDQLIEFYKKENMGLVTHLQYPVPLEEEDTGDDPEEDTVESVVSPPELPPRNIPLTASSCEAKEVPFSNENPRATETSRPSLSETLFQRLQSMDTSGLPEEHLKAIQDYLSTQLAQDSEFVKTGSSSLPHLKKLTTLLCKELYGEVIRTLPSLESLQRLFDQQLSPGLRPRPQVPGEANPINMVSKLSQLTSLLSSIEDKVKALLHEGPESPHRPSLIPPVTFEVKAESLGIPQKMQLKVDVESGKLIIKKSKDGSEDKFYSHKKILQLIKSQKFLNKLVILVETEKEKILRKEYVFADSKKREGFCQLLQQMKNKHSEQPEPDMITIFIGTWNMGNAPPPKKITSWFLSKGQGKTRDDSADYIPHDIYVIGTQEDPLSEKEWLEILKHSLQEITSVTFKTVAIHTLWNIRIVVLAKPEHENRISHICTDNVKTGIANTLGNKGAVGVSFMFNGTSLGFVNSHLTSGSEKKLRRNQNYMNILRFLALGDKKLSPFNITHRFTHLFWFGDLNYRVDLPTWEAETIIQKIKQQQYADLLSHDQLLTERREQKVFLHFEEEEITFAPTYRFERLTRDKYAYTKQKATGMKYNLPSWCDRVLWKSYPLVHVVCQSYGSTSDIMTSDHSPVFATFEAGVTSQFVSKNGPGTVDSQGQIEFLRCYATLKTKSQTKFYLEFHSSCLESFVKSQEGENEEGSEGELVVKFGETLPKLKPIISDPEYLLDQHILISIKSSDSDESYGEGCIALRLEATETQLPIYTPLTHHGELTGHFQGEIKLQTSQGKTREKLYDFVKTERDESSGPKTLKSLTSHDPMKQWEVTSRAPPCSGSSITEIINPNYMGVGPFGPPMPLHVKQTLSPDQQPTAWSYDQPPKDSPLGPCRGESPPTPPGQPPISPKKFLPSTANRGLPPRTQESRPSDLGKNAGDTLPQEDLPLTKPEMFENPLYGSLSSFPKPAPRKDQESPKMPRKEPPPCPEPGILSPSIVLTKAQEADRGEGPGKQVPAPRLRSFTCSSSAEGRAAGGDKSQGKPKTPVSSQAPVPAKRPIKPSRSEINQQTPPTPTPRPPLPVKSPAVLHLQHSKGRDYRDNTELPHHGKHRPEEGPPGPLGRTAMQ", "experiment": "co-immunoprecipitation"}, "[9]": {"molecular_target": "T7, C57BL/6 allele of mouse BTLA expressed on transfected cells as a GFP fusion protein (mouse, UniProt Q7TSA3 30-306)", "T7 construct": "also called BJAB.B6 BTLA-GFP; C57BL/6 BTLA; not shown: GFP without its start codon", "T7 sequence": "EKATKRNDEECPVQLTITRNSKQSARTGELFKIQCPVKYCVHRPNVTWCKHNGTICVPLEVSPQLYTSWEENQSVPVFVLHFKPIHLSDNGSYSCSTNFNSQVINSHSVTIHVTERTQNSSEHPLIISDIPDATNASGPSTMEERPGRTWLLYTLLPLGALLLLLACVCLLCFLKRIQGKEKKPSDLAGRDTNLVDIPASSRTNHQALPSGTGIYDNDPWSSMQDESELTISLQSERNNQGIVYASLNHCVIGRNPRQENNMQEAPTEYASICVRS", "experiment": "flow cytometry on NIH 3T3 transfectants", "description": "as §2"}},
  "data": [
    {"binder": "BALB/c BTLA tetramer-phycoerythrin (other, biotinylated in vitro with BirA ligase; bound to streptavidin-phycoerythrin, also called BALB-BTLA pET28 product; not shown: biotinylation tag of the MLL1-pET28 vector) DEECEVQLNIKRNSKHSAWTGELFKIECPVKYCVHRPNVTWCKHNGTIWVPLEVGPQLYTSWEENRSVPVFVLHFKPIHLSDNGSYSCSTWFWSQVINSHSVTIHVR", "values": [
      {"measurement": "binding result", "setting": "[1]", "value": "no binding"},
      {"measurement": "binding result", "setting": "[2]", "value": "no binding"},
      {"measurement": "binding result", "setting": "[3]", "value": "no binding"}
    ]},
    {"binder": "mouse BTLA-Fc fusion protein (Fc fusion, also called mBTLA-Fc; not shown: Fc-αTP part of the CD47-Fc-αTP-ires-GFP-RV vector (detected with anti-human IgG)) EKATKRNDEECPVQLTITRNSKQSARTGELFKIQCPVKYCVHRPNVTWCKHNGTICVPLEVSPQLYTSWEENQSVPVFVLHFKPIHLSDNGSYSCSTNFNSQVINSHSVTIHVTERTQNSSEHPLIISDIPDATNAS", "values": [
      {"measurement": "binding result", "setting": "[1]", "value": "no binding (tested: 200 ng of purified Fc-fusion protein)"}
    ]},
    {"binder": "mouse BTLA tetramer (allele not stated at these places) (other, UniProt Q7TSA3 30-166, looked up, biotinylated; bound to streptavidin-phycoerythrin, domain: BTLA Ig domain; also called BTLA tetramers; tetramers of mouse BTLA) EKATKRNDEECPVQLTITRNSKQSARTGELFKIQCPVKYCVHRPNVTWCKHNGTICVPLEVSPQLYTSWEENQSVPVFVLHFKPIHLSDNGSYSCSTNFNSQVINSHSVTIHVRERTQNSSEHPLITVSDIPDATNA", "values": [
      {"measurement": "binding result", "setting": "[4]", "value": "no binding"},
      {"measurement": "binding result", "setting": "[5]", "value": "no binding"},
      {"measurement": "binding result", "setting": "[1]", "value": "no binding"}
    ]},
    {"binder": "Myc-tagged full length human BTLA, tyrosine-phosphorylated (pervanadate) (receptor, tyrosine-phosphorylated after pervanadate treatment (Y226, Y257, Y282 are the tyrosines studied), Expressed in Jurkat T cells; also called myc-hBTLA; Myc3-hBTLA; not shown: triple Myc tag inserted downstream of the signal peptide) KESCDVQLYIKRQSEHSILAGDPFELECPVKYCANRPHVTWCKLNGTTCVKLEDRQTSWKEEKNISFFILHFEPMLPNDNGSYRCSANFQSNLIESHSTTLYVTDVKGASERPSKDEVASRPWLLYSLLPLGGLPLLITTWFCLFCCLRRHQGKQNELSDTAGREINLVDAHLKSEQTEASTRQNSQVLLSEAGIYDNDPDLCFRMQEGSEVCSNPCLEENKPGIVYASLNHSVIGLNSRLARNVKEAPTEYASICVRS", "values": [
      {"measurement": "binding result", "setting": "[6]", "value": "no binding"},
      {"measurement": "binding result", "setting": "[7]", "value": "no binding"},
      {"measurement": "binding result", "setting": "[8]", "value": "no binding"}
    ]},
    {"binder": "human BTLA-Fc fusion protein (Fc fusion, Used as 1 ml of supernatant for staining; also called hBTLA-Fc; not shown: Fc-αTP part of the CD47-Fc-αTP-ires-GFP-RV vector (detected with anti-human IgG)) KESCDVQLYIKRQSEHSILAGDPFELECPVKYCANRPHVTWCKLNGTTCVKLEDRQTSWKEEKNISFFILHFEPMLPNDNGSYRCSANFQSNLIESHSTTLYVTDVKGASERPSKDEVA", "values": [
      {"measurement": "binding result", "setting": "[1]", "value": "binds"}
    ]},
    {"binder": "C57BL/6 BTLA tetramer-phycoerythrin (other, biotinylated in vitro with BirA ligase on the C-terminal BirA sequence; bound to streptavidin-phycoerythrin, also called B6-BTLA pET28 product) EKATKRNDEECPVQLTITRNSKQSARTGELFKIQCPVKYCVHRPNVTWCKHNGTICVPLEVSPQLYTSWEENQSVPVFVLHFKPIHLSDNGSYSCSTNFNSQVINSHSVTIHVTERTQNSSEHPLIISDIPDATNASGGGLNDIFEAQKIEWHE", "values": [
      {"measurement": "binding result", "setting": "[1]", "value": "no binding"},
      {"measurement": "binding result", "setting": "[2]", "value": "no binding"},
      {"measurement": "binding result", "setting": "[3]", "value": "no binding"}
    ]},
    {"binder": "mB7x-Fc fusion protein (Fc fusion, not shown: Fc-αTP part of the CD47-Fc-αTP-ires-GFP-RV vector (detected with anti-human IgG)) LIIGFGISGKHFITVTTFTSAGNIGEDGTLSCTFEPDIKLNGIVIQWLKEGIKGLVHEFKEGKDDLSQQHEMFRGRTAVFADQVVVGNASLRLKNVQLTDAGTYTCYIRTSKGKGNANLEYKTGAFSMPEINVDYNASSESLRCEAPRWFPQPTVAWASQVDQGANFSEVSNTSFELNSENVTMKVVSVLYNVTINNTYSCMIENDIAKATGDIKVTDSEVKRRSQLQLLNSG", "values": [
      {"measurement": "binding result", "setting": "[9]", "value": "no binding"},
      {"measurement": "binding result", "setting": "[1]", "value": "no binding (tested: 200 ng of purified Fc-fusion protein)"}
    ]}
  ]
}
